Target: plasma derived C3b (UniProt P01024)
Assay: cell-based or functional assay

Sequence of UniProt P01024 (P01024 749-1663 limits assumed, chain 1 of 2): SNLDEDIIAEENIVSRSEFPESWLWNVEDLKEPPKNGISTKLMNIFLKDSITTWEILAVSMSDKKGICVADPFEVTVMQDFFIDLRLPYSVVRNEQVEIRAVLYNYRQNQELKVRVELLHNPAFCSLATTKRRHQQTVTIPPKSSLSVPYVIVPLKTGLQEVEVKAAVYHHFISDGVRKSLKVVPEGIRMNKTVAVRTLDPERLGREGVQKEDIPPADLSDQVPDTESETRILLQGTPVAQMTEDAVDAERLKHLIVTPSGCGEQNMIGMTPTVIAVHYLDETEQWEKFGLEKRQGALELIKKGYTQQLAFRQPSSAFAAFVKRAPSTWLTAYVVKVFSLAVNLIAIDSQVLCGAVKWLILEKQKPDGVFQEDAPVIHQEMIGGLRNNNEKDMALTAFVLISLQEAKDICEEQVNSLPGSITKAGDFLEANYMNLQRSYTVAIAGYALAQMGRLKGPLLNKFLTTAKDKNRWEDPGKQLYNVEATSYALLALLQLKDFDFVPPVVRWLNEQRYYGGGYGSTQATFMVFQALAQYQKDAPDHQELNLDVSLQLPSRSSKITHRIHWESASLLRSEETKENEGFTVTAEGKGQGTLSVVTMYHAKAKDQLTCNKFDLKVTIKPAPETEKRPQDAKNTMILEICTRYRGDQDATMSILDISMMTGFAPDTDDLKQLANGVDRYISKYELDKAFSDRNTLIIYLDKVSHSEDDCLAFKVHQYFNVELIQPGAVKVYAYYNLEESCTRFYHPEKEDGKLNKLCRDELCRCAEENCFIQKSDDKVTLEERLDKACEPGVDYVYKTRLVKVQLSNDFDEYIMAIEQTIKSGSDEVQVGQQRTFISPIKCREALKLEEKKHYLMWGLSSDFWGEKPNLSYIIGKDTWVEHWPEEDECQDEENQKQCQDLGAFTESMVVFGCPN
Sequence of UniProt P01024 (P01024 23-667 limits assumed, chain 2 of 2): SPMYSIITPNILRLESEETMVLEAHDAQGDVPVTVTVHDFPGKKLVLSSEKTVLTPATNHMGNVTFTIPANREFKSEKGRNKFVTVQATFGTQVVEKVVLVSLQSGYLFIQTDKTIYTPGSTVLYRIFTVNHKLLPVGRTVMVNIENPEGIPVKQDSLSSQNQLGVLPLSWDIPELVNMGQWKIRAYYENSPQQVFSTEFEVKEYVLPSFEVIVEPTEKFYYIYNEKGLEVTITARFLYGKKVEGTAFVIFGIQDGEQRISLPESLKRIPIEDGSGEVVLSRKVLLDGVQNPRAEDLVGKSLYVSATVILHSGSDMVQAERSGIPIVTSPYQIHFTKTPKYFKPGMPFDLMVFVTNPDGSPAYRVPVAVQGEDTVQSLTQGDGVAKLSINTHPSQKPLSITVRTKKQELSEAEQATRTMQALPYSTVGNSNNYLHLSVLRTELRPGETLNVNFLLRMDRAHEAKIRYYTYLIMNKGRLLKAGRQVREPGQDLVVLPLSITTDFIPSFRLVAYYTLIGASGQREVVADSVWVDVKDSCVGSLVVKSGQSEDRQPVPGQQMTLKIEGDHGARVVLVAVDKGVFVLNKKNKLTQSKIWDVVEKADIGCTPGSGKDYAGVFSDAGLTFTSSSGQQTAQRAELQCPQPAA

- fluid phase Factor I cofactor activity: concentration of regulator at which the C3α′ band disappears (complete degradation of C3b), SDS-PAGE: 200 nM
Substance: FH^1-5∧18-20 (from UniProt P08603 19-322; P08603 1046-1231)

— patent US20230101835A1
